# Measurements taken from patent US5625031, “Peptide inhibitors of the p33^cdk2 and p34^cdc2 cell cycle regulatory kinases and human papillomavirus E7 oncoprotein” (Bristol-Myers Squibb Company, dated 1997).
# Experiments:
# [1] = target: T1, p34^cdc2 cell cycle regulatory kinase (Homo sapiens (Human), UniProt P06493); assay: IC50 column of Table 1 (ELISA based competition on p107 30mer-coated plate)
# [2] = target: T1, p34^cdc2 cell cycle regulatory kinase; assay: IC50 column of Table 1 (ELISA based competition, competitor plate-bound p107 30mer)
Binder,binding result [1],IC50 [2]
LCAFYKMAK [p107 9mer peptide 717IK],no binding (tested: >100 µM),> 100 µM
LCAAYIMAK [p107 9mer peptide 715FA],no binding (tested: >100 µM),> 100 µM
YIMAK [p107 N5mer peptide],no binding (tested: >100 µM),> 100 µM
LCAKYIMAK [p107 9mer peptide 715FK],no binding (tested: >100 µM),> 100 µM
